The target in this assay is T1, oncostatin M receptor-beta (OSMRβ) (human, UniProt Q99650 28-979).
T1 sequence (looked up): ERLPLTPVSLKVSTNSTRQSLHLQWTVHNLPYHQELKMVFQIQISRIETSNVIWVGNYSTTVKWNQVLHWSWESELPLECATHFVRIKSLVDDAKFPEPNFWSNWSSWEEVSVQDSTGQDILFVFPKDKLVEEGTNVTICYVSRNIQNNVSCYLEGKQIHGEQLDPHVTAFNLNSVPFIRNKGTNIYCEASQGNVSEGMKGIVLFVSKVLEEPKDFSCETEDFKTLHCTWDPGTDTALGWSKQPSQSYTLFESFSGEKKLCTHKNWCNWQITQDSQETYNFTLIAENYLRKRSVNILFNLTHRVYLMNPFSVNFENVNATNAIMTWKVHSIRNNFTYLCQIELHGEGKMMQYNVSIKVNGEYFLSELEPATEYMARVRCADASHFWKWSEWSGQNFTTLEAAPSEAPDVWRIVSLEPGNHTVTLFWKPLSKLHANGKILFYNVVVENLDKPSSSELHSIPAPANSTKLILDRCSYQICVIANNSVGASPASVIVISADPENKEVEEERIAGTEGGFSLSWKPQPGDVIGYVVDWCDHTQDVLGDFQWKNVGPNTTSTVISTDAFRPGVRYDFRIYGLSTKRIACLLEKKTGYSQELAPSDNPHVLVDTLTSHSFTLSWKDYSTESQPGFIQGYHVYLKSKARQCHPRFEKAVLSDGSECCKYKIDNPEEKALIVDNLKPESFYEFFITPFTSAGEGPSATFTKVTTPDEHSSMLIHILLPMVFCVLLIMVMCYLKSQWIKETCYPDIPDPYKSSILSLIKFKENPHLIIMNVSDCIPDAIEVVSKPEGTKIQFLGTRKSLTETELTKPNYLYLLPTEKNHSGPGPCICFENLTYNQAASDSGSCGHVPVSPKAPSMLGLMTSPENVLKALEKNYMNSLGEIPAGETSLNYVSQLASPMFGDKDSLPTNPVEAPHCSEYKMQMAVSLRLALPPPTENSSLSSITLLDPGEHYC
The assay is described as follows: cell-based or functional assay.

B1: Vixarelimab (antibody, human IgG4 S228P, lambda, N297Q, V domains shown)
VH: QVQLVQSGAEVKKPGASVKVSCKASGYTFTSYEINWVRQATGQGLEWMGWMNPNSGYTGYAQKFQGRVTMTRDTSISTAYMEMSSLRSEDTAVYYCARDIVAANTDYYFYYGMDVWGQGTTVTVSS
VL: QSVLTQPPSASGTPGQRVTISCSGSNSNIGSNTVNWYHQLPGTAPKLLIYNINKRPSGVPDRFSGSKSGSSASLAISGLQSEDEADYYCSTWDDSLDGVVFGGGTKLTVLG
For B1, the “Mean of IC50, inhibition of OSM-induced pSTAT3; IBD-derived intestinal fibroblasts, [OSM] 1 ng/mL (standard deviation 0.05)” value came to 0.14 nM; the “Mean of IC50, inhibition of OSM-induced pSTAT3; IBD-derived intestinal fibroblasts, [OSM] 10 ng/mL (standard deviation 0.36)” value was determined as 1.15 nM; the “Mean of IC50, inhibition of OSM-induced pSTAT3; normal keratinocytes, [OSM] 10 ng/mL (standard deviation 0.18)” value was 0.36 nM.

(Values after patent US20250101117A1 (Genentech, published 2025).)
